According to the supplement of paper PMC9732359:
± gives the uncertainty stated by the source.

Experiment: protein stability index of a GFP-peptide fusion (yeast GPS) (PSI 1-4); higher = more stable; sorted into four equal gates, so the index is relative within each strain
In short: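 Sequencing reads from sorted gates were used to score each peptide. The library consisted of tiled 17-residue yeast protein peptides fused downstream of GFP on a Cherry-expressing plasmid, pooled and carried in yeast. Mid-log cultures in leucine-free medium were split into four equal gates by GFP/Cherry ratio, and each gate's plasmids were PCR-amplified and Illumina-sequenced. The protein stability index adds up, over all gates, the read frequency multiplied by the gate number.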

Sequence	protein stability index (doa10∆)	protein stability index (ubr1∆)	protein stability index (pdr5∆)	protein stability index (san1∆)
PKGVILYGAPGTGKTLL [RPT2]	3.67 ± 0.27	3.13 ± 0.22		
PKKEYDDDAVRREVQIQ [NSL1]	1.4 ± 0.18	2.38 ± 0.21	2.11 ± 0.25	1.36 ± 0.29
PKKFGGKGARSRFQKSY [RPS16A]	3.22 ± 0.12	2.93 ± 0.1	3.31 ± 0.11	3.31 ± 0.13
PKLESVKWQYDPNNPVD [SNF12]	2.38 ± 0.059	2.55 ± 0.031	2.81 ± 0.055	2.21 ± 0.067
PKNLSTPSTSSNGEFIP [CSE2]	2.83 ± 0.049	2.93 ± 0.043	2.87 ± 0.045	2.79 ± 0.039
PKNVKGEEDADEEETAE [RPN1]	3.21 ± 0.17		3.16 ± 0.26	3.01 ± 0.14
PKSASNTSSKRQKKKPT [IRR1]	2.78 ± 0.069	2.96 ± 0.072	2.61 ± 0.072	2.65 ± 0.049
PKVSAGDSGISPEESKA [SIR4]	3.44 ± 0.1	3.17 ± 0.059	3.46 ± 0.13	2.98 ± 0.098
PLELSAPIGKHYVVLDT [DIS3]	2.83 ± 0.1	2.39 ± 0.11	2.78 ± 0.14	2.63 ± 0.086
PLKRAIWLIKCCYFIEW [SRB8]	2.56 ± 0.1	2.77 ± 0.071	2.12 ± 0.074	2.85 ± 0.097
PLKTELEANGRSLEKVN [SSN2]	3.19 ± 0.12	3.55 ± 0.08	3.34 ± 0.08	3.22 ± 0.1
PLLSNYASKINRAEGPE [RGR1]	2.88 ± 0.12	2.55 ± 0.082	2.8 ± 0.1	2.87 ± 0.12
PLQGIFHNAVFNSFRRF [QCR8]	2.67 ± 0.064	1.96 ± 0.031	2.47 ± 0.048	2.38 ± 0.054
PLQSIPEIGNRKINLFY [SWI1]	1.51 ± 0.07	1.43 ± 0.064	1.48 ± 0.072	2.54 ± 0.073
PLRENTNVLDVKDKEED [YDL116W/NUP84]	3.07 ± 0.082	2.99 ± 0.11	3.11 ± 0.1	3.25 ± 0.065
PLRMETIPILESDSKAT [DSN1]	2.14 ± 0.062	2.27 ± 0.044	2.54 ± 0.084	2.59 ± 0.14
PLSESLRLVDDDENNPS [RRP6]	3.15 ± 0.11	3.08 ± 0.084	3.12 ± 0.096	2.98 ± 0.084
PLSLTHRDKNKMDMICR [DIS3]	3.24 ± 0.13	3.16 ± 0.18	3.43 ± 0.16	3.23 ± 0.13
PMASSSSFGSESLTFNE [SWI1]	3.15 ± 0.043	3.099 ± 0.029	3.16 ± 0.041	3.14 ± 0.035
PMETLLSGLSADKPFTR [YML031W/NDC1]	2.91 ± 0.05	2.85 ± 0.034	3.04 ± 0.05	2.94 ± 0.037
PNFEASFVHGVVGQLFQ [SMC2]	1.61 ± 0.098	3.18 ± 0.12	2.56 ± 0.11	2.58 ± 0.1
PNFLIMQGKITKVLNMK [SMC2]	2.73 ± 0.1	2.88 ± 0.063	2.86 ± 0.07	2.85 ± 0.055
PNISHSNIDYQTLLANS [SNF2]	3.33 ± 0.17	2.82 ± 0.11	2.7 ± 0.18	2.58 ± 0.22
PNLIEKMVAKGLNDLVE [BRR2]	2.51 ± 0.17	2.99 ± 0.18	2.82 ± 0.21	
PNNSRDDYKDLTCSLYE [IRR1]	3.11 ± 0.069	3.24 ± 0.087	2.88 ± 0.069	3.18 ± 0.052
PNPTPSMINSVSPTNVM [PGD1]	2.21 ± 0.032	2.27 ± 0.028	2.55 ± 0.037	2.32 ± 0.03
PNSNVELAGGNASLTIE [SMC1]	2.91 ± 0.091	3.04 ± 0.27	3.06 ± 0.2	2.95 ± 0.071

Sequence	protein stability index (doa10∆)	protein stability index (ubr1∆)	protein stability index (pdr5∆)	protein stability index (san1∆)
PNVSDKYYLEESNVNDS [NUT1]	3.2 ± 0.26	3.17 ± 0.14	2.85 ± 0.15	3.21 ± 0.096
PPLTYKNDTKILVLALE [PRP8]	2.58 ± 0.057	2.04 ± 0.029	2.48 ± 0.043	2.52 ± 0.055
PPPPGFEEDSDLALPPP [PRP8]	3.22 ± 0.078	3.35 ± 0.057	3.36 ± 0.07	3.19 ± 0.079
PPPPQQSQPIANQSATS [SNF5]	2.96 ± 0.057	3.05 ± 0.041	3.15 ± 0.049	2.92 ± 0.043
PQNTTATTGGLFGSKPQ [YGR119C/NUP57]	3.33 ± 0.1	3.53 ± 0.17	3.36 ± 0.1	3.32 ± 0.13
PQQAQQQPNPLHGLTPT [GAL11]	3 ± 0.068	3.05 ± 0.035	2.95 ± 0.042	2.83 ± 0.051
PQQSGKKLLINKDASLA [DPB4]	2.2 ± 0.062	2.22 ± 0.055	1.99 ± 0.064	1.81 ± 0.1
PRKLVLSSGENRYAFSQ [SMC4]	1.39 ± 0.08	1.59 ± 0.054	1.56 ± 0.058	1.72 ± 0.086
PRMYHIGLRQFQQIQYE [POP1]	2.06 ± 0.098	1.48 ± 0.1	1.67 ± 0.071	2.25 ± 0.095
PRRYGKGSRQCRVCSSH [RPS29A]	2.81 ± 0.055	2.91 ± 0.038	3.01 ± 0.043	2.92 ± 0.042
PSAFNFTGNNSTPGGGS [YOR098C/NUP1]				3.14 ± 0.13
PSAGPHKLRESLPLIVF [RPS4A]	1.76 ± 0.048	2.05 ± 0.046	1.75 ± 0.045	1.69 ± 0.087
PSKDSFTKYKPARSSSL [YAR002W/NUP60]	2.15 ± 0.043	2.77 ± 0.04	2.59 ± 0.044	2.44 ± 0.053
PSKSQTNFKEEITDASL [YML103C/NUP188]	2.93 ± 0.15	2.92 ± 0.18	3.13 ± 0.11	3.02 ± 0.18
PSLYRLLNILITYGIIK [SRB8]	1.37 ± 0.12	1.04 ± 0.044	1.07 ± 0.12	
PSPPNVIITDGTLLRED [YDL088C/ASM4]	2.71 ± 0.036	2.91 ± 0.034	2.81 ± 0.041	2.97 ± 0.045
PSRKDCMEVASAFMKFS [BRR2]	2.4 ± 0.054	2.68 ± 0.055	2.78 ± 0.047	2.83 ± 0.06
PSTDKNEKKTETNAKPF [YLR335W/NUP2]	3.32 ± 0.11	3.33 ± 0.096	3.28 ± 0.094	3.34 ± 0.044
PSTRSNFILEVFGTIIP [YJL039C/NUP192]	1.35 ± 0.085	1.35 ± 0.072	1.41 ± 0.071	1.28 ± 0.23
PSTSITLAERQQLAYDL [RPN9]	2.91 ± 0.045	2.94 ± 0.033	3.09 ± 0.06	2.8 ± 0.06
PSTTLFNFGGKSDTVTS [YOR098C/NUP1]	2.51 ± 0.065	2.92 ± 0.059	2.32 ± 0.075	2.4 ± 0.073
PTEMEPDLDTECFISMQ [SWI1]	3.27 ± 0.055	3.26 ± 0.058	3.39 ± 0.052	3.23 ± 0.047
PTFTFGSSALADNKEDV [YLR335W/NUP2]	3.13 ± 0.074	3.09 ± 0.033	3.06 ± 0.049	3.06 ± 0.041
PTFVEFILIPLYKIFSY [SNU114]	1.98 ± 0.045	1.63 ± 0.044	1.73 ± 0.054	1.62 ± 0.073
PTIEYVQCPTVIKLAKY [ARP9]	1.97 ± 0.047	1.98 ± 0.032	1.87 ± 0.034	1.75 ± 0.068
PTPAASAPAPAAAAPAP [FAS2]	2.95 ± 0.1	3.1 ± 0.079	3.05 ± 0.073	2.72 ± 0.074
